Data from publication PMC8216289 (Nucleic Acids Research, 2021).
Where two headings read alike, the source gives them in different places. Blank lines part the entries; values can stand above or below the molecule they belong to.

Tests used:
[1] = molecular target: zinc uptake regulator (Zur) from Xanthomonas campestris pv. campestris (XcZur) (Xanthomonas campestris pv. campestris strain 8004); experiment: AUC
[2] = molecular target: zinc uptake regulator (Zur) from Xanthomonas campestris pv. campestris (XcZur) (Xanthomonas campestris pv. campestris strain 8004); experiment: AUC; remark: listed apart in the source
XcZur [3] = molecular target: T1, XcZur (Xanthomonas campestris pv. campestris …, UniProt Q4UWS5 1-172); experiment: BLI
T1 sequence: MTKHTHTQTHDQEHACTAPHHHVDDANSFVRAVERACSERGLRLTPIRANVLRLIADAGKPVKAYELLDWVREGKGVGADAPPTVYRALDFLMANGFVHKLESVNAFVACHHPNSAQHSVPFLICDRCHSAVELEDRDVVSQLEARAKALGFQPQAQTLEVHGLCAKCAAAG

XcZur [4] = molecular target: T1, XcZur; experiment: EMSA
crystal structure = molecular target: the molecule itself; experiment: crystal structure
XcZur [5] = molecular target: T1, XcZur; experiment: EMSA; remark: listed apart in the source

percent as dimers [1]: 32.9%
percent as monomers [1]: 60.5%
percent as trimers [1]: 5.8%
stoichiometry N [1]: 2
percent as dimers [2]: 60.3%
percent as monomers [2]: 28.9%
percent as tetramers [2]: 4.9%
stoichiometry N [2]: 2
Molecule: zinc uptake regulator (Zur) from Xanthomonas campestris pv. campestris (XcZur) (natural protein)

B1: P0267-Biotin (dsDNA)
DNA 1: GGCGAGTTGTTATACAGTAACATTTCTAG
DNA 2: CTAGAAATGTTACTGTATAACAACTCGCC
Kd (XcZur [3]): ~22 nM

B2: EcZur-box (dsDNA)
DNA 1: AGAAGTGTGATATTATAACATTTCATGACTATG
DNA 2: CATAGTCATGAAATGTTATAATATCACACTTCT
binding result (XcZur [4]): binds

B3: N-terminal extension deleted XcZur (T17-G172) (domain or fragment)
chain: TAPHHHVDDANSFVRAVERACSERGLRLTPIRANVLRLIADAGKPVKAYELLDWVREGKGVGADAPPTVYRALDFLMANGFVHKLESVNAFVACHHPNSAQHSVPFLICDRCHSAVELEDRDVVSQLEARAKALGFQPQAQTLEVHGLCAKCAAAG
binding result (crystal structure): binds

B4: P3788-Biotin (dsDNA)
DNA 1: ATTGATACGTTATCACATTGCGCCCCGCGCT
DNA 2: AGCGCGGGGCGCAATGTGATAACGTATCAAT
Kd (XcZur [3]): ~63 nM

B5: P2976 (dsDNA)
DNA 1: TTAGGGCCACGCGGTTGCGGAGACTATTACACCGGCGCGTGATGAGATCACATCACGTG
DNA 2: CACGTGATGTGATCTCATCACGCGCCGGTGTAATAGTCTCCGCAACCGCGTGGCCCTAA
binding result (XcZur [5]): no binding

B6: P2472-Biotin (dsDNA)
DNA 1: AAGTGTTATAAAGTAACACTAGTCGCG
DNA 2: CGCGACTAGTGTTACTTTATAACACTT
Kd (XcZur [3]): ~38 nM
